Test results: publication PMC5529482, “Novel strategies to mimic transmembrane tumor necrosis factor-dependent activation of tumor necrosis factor receptor 2” (Scientific Reports, 2017)

Target: T1, mouse TNFR2-Fc fusion protein (mouse, UniProt P25119 23-258)
T1 construct: mouse TNF receptor 2 (TNFR2)
T1 sequence (looked up): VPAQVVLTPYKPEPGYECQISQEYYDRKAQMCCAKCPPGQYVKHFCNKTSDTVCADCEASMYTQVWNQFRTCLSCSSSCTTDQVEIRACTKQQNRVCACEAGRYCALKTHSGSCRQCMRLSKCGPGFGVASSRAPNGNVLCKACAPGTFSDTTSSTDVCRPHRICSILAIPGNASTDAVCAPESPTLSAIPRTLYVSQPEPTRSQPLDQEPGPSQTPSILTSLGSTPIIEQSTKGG
Assay: ELISA; TNFR1-Fc or TNFR2-Fc coated at 1 µg/ml in PBS, 4 °C overnight; TNF muteins in 2% skim milk powder in PBS, 1 h RT; detected with anti-TNF clone F6C5 and HRP anti-mouse IgG
Conditions: both partners purified

B1: GCN4-sc-mTNFR2 (ligand)
chain: not shown
With B1 the EC50 was 45 pM.
